According to patent publication US20170002051A1:

Legend:
chicken CSF1R (chicken) = assay: cell-based or functional assay
porcine CSF1R (porcine) = porcine CSF1R (porcine) (UniProt K9IVS4); assay: cell-based or functional assay

Row | Substance | survival/proliferation of BaF/3 cells expressing chicken CSF1R (Cell TiterGlo), EC50 (chicken CSF1R (chicken)) [µg/mL] | survival/proliferation of BaF/3 cells expressing porcine CSF1R (Cell TiterGlo), EC50 (porcine CSF1R (porcine)) [µg/mL]
1 | recombinant chicken CSF1 (active fragment of chicken CSF-1, expressed in E. coli from pTLW54, refolded) (ligand) | 0.02 | –
2 | recombinant porcine CSF1 (from UniProt A0A287BPE2 36-189) (ligand) | – | 0.03
3 | recombinant human CSF1 (Sigma 6518) (from UniProt P09603 33-190) (ligand) | – | 0.03
